From PMC8771494

Target: APC15R (the 15-aa repeat region of Adenomatous polyposis coli, repeats A-D with the linker region) (human)
Test: cross-linking

Chain of APC15R (the 15-aa repeat region of Adenomatous polyposis coli, repeats A-D with the linker region) (human) (P25054 2-2843): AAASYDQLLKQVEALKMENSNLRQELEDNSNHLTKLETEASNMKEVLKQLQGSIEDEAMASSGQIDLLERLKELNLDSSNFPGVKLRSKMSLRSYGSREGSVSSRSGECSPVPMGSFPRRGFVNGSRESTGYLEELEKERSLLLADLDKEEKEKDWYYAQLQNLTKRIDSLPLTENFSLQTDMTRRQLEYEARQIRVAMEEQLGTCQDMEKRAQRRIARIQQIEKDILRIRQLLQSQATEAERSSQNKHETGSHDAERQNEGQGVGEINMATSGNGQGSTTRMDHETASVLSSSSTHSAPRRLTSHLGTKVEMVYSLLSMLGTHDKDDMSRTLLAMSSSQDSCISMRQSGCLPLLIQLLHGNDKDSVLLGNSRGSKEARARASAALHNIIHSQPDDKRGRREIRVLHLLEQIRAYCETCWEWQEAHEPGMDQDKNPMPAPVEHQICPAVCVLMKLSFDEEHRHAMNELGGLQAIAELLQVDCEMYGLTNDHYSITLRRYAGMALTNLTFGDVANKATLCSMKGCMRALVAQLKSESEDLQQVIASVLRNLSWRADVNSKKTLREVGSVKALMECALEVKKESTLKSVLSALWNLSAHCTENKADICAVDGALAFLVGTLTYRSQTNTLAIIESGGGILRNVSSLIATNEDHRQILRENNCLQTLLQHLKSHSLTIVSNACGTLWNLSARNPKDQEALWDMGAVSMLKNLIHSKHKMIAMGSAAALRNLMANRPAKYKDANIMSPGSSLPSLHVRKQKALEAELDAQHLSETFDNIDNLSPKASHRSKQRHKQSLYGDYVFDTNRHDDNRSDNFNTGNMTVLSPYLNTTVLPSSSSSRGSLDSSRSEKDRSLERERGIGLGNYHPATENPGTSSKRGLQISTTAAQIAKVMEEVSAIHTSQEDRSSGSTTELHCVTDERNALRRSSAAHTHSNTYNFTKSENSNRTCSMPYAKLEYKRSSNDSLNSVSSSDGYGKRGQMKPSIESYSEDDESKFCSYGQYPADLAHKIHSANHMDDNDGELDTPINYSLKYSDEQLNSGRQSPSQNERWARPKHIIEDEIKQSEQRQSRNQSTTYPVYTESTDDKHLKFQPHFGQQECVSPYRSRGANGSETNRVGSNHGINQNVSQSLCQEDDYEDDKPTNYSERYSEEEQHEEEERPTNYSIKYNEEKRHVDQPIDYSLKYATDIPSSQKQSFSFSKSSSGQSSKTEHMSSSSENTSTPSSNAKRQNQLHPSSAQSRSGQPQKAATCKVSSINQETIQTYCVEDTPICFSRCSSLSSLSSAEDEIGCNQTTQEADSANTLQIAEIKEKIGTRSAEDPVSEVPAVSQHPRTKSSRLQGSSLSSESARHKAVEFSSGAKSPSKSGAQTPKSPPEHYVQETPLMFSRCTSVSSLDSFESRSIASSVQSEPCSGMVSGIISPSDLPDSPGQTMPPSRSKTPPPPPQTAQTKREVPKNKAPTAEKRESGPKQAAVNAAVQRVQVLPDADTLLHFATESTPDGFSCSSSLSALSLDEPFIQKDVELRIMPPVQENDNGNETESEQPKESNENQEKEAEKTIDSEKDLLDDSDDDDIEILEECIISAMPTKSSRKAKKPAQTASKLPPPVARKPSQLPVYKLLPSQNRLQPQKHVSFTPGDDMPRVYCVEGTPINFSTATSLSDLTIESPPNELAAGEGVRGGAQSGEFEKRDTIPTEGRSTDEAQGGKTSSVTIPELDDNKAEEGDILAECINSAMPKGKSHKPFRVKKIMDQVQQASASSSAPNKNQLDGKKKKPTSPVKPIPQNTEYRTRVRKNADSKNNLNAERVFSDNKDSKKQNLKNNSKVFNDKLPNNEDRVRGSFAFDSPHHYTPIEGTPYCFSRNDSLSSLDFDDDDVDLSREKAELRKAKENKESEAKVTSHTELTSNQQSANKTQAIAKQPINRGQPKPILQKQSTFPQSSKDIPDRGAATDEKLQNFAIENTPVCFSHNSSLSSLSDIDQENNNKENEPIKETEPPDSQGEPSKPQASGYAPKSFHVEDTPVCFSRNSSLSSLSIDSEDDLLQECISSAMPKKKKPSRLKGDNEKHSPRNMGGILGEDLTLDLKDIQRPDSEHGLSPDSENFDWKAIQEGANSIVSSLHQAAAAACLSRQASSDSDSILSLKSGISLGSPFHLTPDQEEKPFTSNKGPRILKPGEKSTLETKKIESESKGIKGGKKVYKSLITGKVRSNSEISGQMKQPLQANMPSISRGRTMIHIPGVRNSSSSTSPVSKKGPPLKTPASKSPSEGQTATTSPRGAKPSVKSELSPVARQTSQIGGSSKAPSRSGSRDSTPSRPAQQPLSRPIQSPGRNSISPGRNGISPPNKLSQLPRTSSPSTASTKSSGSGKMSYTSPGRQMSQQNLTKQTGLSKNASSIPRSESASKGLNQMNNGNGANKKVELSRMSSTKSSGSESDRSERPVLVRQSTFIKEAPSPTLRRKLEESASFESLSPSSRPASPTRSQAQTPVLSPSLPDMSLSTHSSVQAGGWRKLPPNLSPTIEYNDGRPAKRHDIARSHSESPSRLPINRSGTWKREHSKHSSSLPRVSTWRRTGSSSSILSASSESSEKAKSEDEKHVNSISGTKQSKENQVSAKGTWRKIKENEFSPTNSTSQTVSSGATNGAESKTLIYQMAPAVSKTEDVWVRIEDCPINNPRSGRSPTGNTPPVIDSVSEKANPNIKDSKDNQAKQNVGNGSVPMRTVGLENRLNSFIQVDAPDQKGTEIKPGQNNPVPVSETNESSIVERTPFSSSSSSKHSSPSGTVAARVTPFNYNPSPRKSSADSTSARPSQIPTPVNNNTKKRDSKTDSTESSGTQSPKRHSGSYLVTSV

stoichiometry N (β-catenin per APC15R): 1
Substance: β-catenin (aa. 150–665), the central region of β-catenin (from UniProt P35222 150-665) (domain or fragment)
